One block for each binder: values may come before it.
Columns and labels:
[1] = molecular target: T1, rHuman Erythropoietin R/Fc Chimera, CF (R&D Systems Cat#963-ER) (human, UniProt P19235 25-250); test: ECL Multispot (MSD), antigen spotted on plate, Fab in solution; blank spot 256
[2] = molecular target: T2, rHuman Notch-1/Fc Chimera, CF (R&D Systems Cat#3647-TK) (human); test: as above
T2 chain: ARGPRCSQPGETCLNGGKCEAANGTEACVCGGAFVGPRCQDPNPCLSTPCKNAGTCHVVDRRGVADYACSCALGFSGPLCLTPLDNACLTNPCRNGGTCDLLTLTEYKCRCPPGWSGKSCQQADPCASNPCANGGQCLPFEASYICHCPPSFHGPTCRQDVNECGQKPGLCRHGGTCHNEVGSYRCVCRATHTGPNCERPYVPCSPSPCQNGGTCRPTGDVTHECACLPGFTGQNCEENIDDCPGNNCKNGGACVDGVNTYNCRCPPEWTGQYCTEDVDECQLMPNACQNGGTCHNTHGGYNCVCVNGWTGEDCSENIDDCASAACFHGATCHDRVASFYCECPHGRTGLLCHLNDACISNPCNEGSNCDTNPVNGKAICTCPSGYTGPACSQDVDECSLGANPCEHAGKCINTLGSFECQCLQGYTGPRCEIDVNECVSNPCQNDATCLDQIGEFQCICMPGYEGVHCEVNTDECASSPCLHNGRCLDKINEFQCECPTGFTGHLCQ

[3] = molecular target: T3, rHuman CD44/Fc Chimera, CF (R&D Systems Cat#3660-CD) (human, UniProt P16070 21-220); test: as above
[4] = molecular target: T4, rHuman P-Cadherin/Fc Chimera, CF (R&D Systems Cat#861-PC) (human, UniProt P22223 108-654); test: as above
[5] = molecular target: T5, rHuman HGF R/c-MET/Fc Chimera, CF (R&D Systems Cat#358-MT/CF) (human, UniProt P08581 25-932); test: as above
[6] = molecular target: T1, rHuman Erythropoietin R/Fc Chimera, CF …; test: ECL Multispot (MSD), antigen spotted on plate, Fab in solution; blank spot 479
[7] = molecular target: T2, rHuman Notch-1/Fc Chimera, CF (R&D …); test: as above
[8] = molecular target: T3, rHuman CD44/Fc Chimera, CF (R&D Systems …); test: as above
[9] = molecular target: T4, rHuman P-Cadherin/Fc Chimera, CF (R&D …); test: as above
[10] = molecular target: T5, rHuman HGF R/c-MET/Fc Chimera, CF (R&D …); test: as above
[11] = molecular target: T1, rHuman Erythropoietin R/Fc Chimera, CF …; test: ECL Multispot (MSD), antigen spotted on plate, Fab in solution; blank spot 438
[12] = molecular target: T2, rHuman Notch-1/Fc Chimera, CF (R&D …); test: as above
[13] = molecular target: T3, rHuman CD44/Fc Chimera, CF (R&D Systems …); test: as above
[14] = molecular target: T4, rHuman P-Cadherin/Fc Chimera, CF (R&D …); test: as above
[15] = molecular target: T5, rHuman HGF R/c-MET/Fc Chimera, CF (R&D …); test: as above
[16] = molecular target: T1, rHuman Erythropoietin R/Fc Chimera, CF …; test: ECL Multispot (MSD), antigen spotted on plate, Fab in solution; blank spot 239
[17] = molecular target: T2, rHuman Notch-1/Fc Chimera, CF (R&D …); test: as above
[18] = molecular target: T3, rHuman CD44/Fc Chimera, CF (R&D Systems …); test: as above
[19] = molecular target: T4, rHuman P-Cadherin/Fc Chimera, CF (R&D …); test: as above
[20] = molecular target: T5, rHuman HGF R/c-MET/Fc Chimera, CF (R&D …); test: as above
[21] = molecular target: T1, rHuman Erythropoietin R/Fc Chimera, CF …; test: ECL Multispot (MSD), antigen spotted on plate, Fab in solution; blank spot 331
[22] = molecular target: T2, rHuman Notch-1/Fc Chimera, CF (R&D …); test: as above
[23] = molecular target: T3, rHuman CD44/Fc Chimera, CF (R&D Systems …); test: as above
[24] = molecular target: T4, rHuman P-Cadherin/Fc Chimera, CF (R&D …); test: as above
[25] = molecular target: T1, rHuman Erythropoietin R/Fc Chimera, CF …; test: ECL Multispot (MSD), antigen spotted on plate, Fab in solution; blank spot 206
[26] = molecular target: T2, rHuman Notch-1/Fc Chimera, CF (R&D …); test: as above
[27] = molecular target: T3, rHuman CD44/Fc Chimera, CF (R&D Systems …); test: as above
[28] = molecular target: T4, rHuman P-Cadherin/Fc Chimera, CF (R&D …); test: as above
[29] = molecular target: T5, rHuman HGF R/c-MET/Fc Chimera, CF (R&D …); test: as above

T5 sequence (P08581 25-932, change not shown): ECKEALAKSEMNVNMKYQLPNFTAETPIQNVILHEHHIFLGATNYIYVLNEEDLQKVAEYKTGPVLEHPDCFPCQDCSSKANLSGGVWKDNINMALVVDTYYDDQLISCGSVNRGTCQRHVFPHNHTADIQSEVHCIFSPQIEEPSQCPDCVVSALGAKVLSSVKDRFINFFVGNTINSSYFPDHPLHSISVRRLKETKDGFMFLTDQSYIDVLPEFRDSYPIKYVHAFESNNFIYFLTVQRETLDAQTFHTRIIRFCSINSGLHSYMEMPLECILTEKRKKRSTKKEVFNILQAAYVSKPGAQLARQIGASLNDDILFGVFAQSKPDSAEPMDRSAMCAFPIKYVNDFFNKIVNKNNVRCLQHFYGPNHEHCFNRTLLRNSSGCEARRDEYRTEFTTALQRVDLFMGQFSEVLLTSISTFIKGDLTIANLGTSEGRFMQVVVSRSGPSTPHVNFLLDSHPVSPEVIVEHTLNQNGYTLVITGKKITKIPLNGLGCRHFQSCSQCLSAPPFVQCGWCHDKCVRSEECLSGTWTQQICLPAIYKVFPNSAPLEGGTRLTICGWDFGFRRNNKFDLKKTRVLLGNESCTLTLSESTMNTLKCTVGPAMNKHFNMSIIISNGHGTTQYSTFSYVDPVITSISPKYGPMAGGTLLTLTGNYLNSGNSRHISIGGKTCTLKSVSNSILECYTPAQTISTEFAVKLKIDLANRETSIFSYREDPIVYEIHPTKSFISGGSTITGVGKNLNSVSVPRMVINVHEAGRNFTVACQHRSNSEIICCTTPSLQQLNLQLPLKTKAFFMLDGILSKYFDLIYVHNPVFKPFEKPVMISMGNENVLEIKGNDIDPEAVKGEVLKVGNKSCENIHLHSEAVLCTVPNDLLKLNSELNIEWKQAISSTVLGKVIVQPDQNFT

- ECL signal [1]: 546
- ECL signal [2]: 375
- ECL signal [3]: 443
- ECL signal [4]: 364
- ECL signal [5]: 293
B1: Fab VH1-46_IGHD6-6*01_IGHJ1*01 S102A/S103P/S104F/H111F (APFF) & L6_IGKJ1*01 W94R (Fab, V domains shown)
VH: QVQLVQSGAEVKKPGASVKVSCKASGYTFTSYYMHWVRQAPGQGLEWMGIINPSGGSTSYAQKFQGRVTMTRDTSTSTVYMELSSLRSEDTAVYYCAREEYAPFSAEYFQFWGQGTLVTVSS
VL: EIVLTQSPATLSLSPGERATLSCRASQSVSSYLAWYQQKPGQAPRLLIYDASNRATGIPARFSGSGSGTDFTLTISSLEPEDFAVYYCQQRSNRPPWTFGQGTKVEIKR
notes: also called APFF / W94R

- ECL signal [6]: 506
- ECL signal [7]: 486
- ECL signal [8]: 469
- ECL signal [9]: 466
- ECL signal [10]: 453
B2: Fab VH1-46_IGHD6-6*01_IGHJ1*01 S102A/S103P/S104F/H111F (APFF) & L6_IGKJ1*01 W94S (Fab, V domains shown)
VH: QVQLVQSGAEVKKPGASVKVSCKASGYTFTSYYMHWVRQAPGQGLEWMGIINPSGGSTSYAQKFQGRVTMTRDTSTSTVYMELSSLRSEDTAVYYCAREEYAPFSAEYFQFWGQGTLVTVSS
VL: EIVLTQSPATLSLSPGERATLSCRASQSVSSYLAWYQQKPGQAPRLLIYDASNRATGIPARFSGSGSGTDFTLTISSLEPEDFAVYYCQQRSNSPPWTFGQGTKVEIKR
notes: also called APFF / W94S

- ECL signal [11]: 432
- ECL signal [12]: 418
- ECL signal [13]: 453
- ECL signal [14]: 481
- ECL signal [15]: 377
B3: Fab VH1-46_IGHD6-6*01_IGHJ1*01 S102A/S103P/S104F/H111F (APFF) & L6_IGKJ1*01 W94T (Fab, V domains shown)
VH: QVQLVQSGAEVKKPGASVKVSCKASGYTFTSYYMHWVRQAPGQGLEWMGIINPSGGSTSYAQKFQGRVTMTRDTSTSTVYMELSSLRSEDTAVYYCAREEYAPFSAEYFQFWGQGTLVTVSS
VL: EIVLTQSPATLSLSPGERATLSCRASQSVSSYLAWYQQKPGQAPRLLIYDASNRATGIPARFSGSGSGTDFTLTISSLEPEDFAVYYCQQRSNTPPWTFGQGTKVEIKR
notes: also called APFF / W94T

- ECL signal [16]: 477
- ECL signal [17]: 310
- ECL signal [18]: 452
- ECL signal [19]: 304
- ECL signal [20]: 309
B4: Fab VH1-46_IGHD6-6*01_IGHJ1*01 S102A/S103P/S104F/H111F (APFF) & L6_IGKJ1*01 N93Q (Fab, V domains shown)
VH: QVQLVQSGAEVKKPGASVKVSCKASGYTFTSYYMHWVRQAPGQGLEWMGIINPSGGSTSYAQKFQGRVTMTRDTSTSTVYMELSSLRSEDTAVYYCAREEYAPFSAEYFQFWGQGTLVTVSS
VL: EIVLTQSPATLSLSPGERATLSCRASQSVSSYLAWYQQKPGQAPRLLIYDASNRATGIPARFSGSGSGTDFTLTISSLEPEDFAVYYCQQRSQWPPWTFGQGTKVEIKR
notes: also called APFF / N93Q

- ECL signal [21]: 425
- ECL signal [22]: 342
- ECL signal [23]: 345
- ECL signal [24]: 293
B5: Fab VH1-46_IGHD6-6*01_IGHJ1*01 S102A/S103P/S104F/H111F (APFF) & L6_IGKJ1*01 N93H (Fab, V domains shown)
VH: QVQLVQSGAEVKKPGASVKVSCKASGYTFTSYYMHWVRQAPGQGLEWMGIINPSGGSTSYAQKFQGRVTMTRDTSTSTVYMELSSLRSEDTAVYYCAREEYAPFSAEYFQFWGQGTLVTVSS
VL: EIVLTQSPATLSLSPGERATLSCRASQSVSSYLAWYQQKPGQAPRLLIYDASNRATGIPARFSGSGSGTDFTLTISSLEPEDFAVYYCQQRSHWPPWTFGQGTKVEIKR
notes: also called APFF / N93H

- ECL signal [25]: 420
- ECL signal [26]: 345
- ECL signal [27]: 346
- ECL signal [28]: 321
- ECL signal [29]: 328
B6: Fab VH1-46_IGHD6-6*01_IGHJ1*01 S102A/S103P/S104F/H111F (APFF) & L6_IGKJ1*01 N93S (Fab, V domains shown)
VH: QVQLVQSGAEVKKPGASVKVSCKASGYTFTSYYMHWVRQAPGQGLEWMGIINPSGGSTSYAQKFQGRVTMTRDTSTSTVYMELSSLRSEDTAVYYCAREEYAPFSAEYFQFWGQGTLVTVSS
VL: EIVLTQSPATLSLSPGERATLSCRASQSVSSYLAWYQQKPGQAPRLLIYDASNRATGIPARFSGSGSGTDFTLTISSLEPEDFAVYYCQQRSSWPPWTFGQGTKVEIKR
notes: also called APFF / N93S
